T1: EsCas13d, nuclease-dead (Eubacterium siraeum, UniProt B0MS50, R295A;H300A;R849A;H854A)
T1 sequence: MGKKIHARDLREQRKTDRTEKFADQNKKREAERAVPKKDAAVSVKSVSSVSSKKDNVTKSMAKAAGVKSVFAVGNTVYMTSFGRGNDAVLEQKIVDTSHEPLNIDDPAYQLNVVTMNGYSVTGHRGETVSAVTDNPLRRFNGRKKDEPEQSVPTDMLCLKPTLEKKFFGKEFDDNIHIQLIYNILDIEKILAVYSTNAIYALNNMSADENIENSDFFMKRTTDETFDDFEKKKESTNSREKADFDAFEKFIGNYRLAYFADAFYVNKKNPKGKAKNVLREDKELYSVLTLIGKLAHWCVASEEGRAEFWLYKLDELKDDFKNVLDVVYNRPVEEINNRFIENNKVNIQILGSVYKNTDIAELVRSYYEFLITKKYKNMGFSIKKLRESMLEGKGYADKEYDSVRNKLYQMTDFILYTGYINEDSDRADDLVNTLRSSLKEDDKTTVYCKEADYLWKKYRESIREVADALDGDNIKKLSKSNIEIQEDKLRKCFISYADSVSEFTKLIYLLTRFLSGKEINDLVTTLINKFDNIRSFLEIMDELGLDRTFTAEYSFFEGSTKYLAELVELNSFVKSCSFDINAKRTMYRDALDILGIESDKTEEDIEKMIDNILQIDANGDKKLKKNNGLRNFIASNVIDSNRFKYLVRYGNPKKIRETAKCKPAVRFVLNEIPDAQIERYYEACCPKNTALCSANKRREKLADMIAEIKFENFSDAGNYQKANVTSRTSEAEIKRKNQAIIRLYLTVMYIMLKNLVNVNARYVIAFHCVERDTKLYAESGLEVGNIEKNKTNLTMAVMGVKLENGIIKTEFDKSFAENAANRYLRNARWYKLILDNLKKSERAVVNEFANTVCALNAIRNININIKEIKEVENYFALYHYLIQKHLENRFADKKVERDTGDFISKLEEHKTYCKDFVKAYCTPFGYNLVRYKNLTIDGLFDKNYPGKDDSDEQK


Each binder was assayed against T1, EsCas13d, nuclease-dead (assay: crRNA (strand 1, pre-loaded); Mg2+; 40 mM Tris-HCl pH 7.5, 150 mM NaCl, 6 mM MgCl2, 1 mM DTT, 0.1% Tween-20, 0.2 mg/ml BSA; 25 C; 10 min per concentration, then washed). Settings: tags: His6-TwinStrep-SUMO cleaved; N-terminal SNAP kept (SNAP-Surface 488); label: 3' end held by stalled T7 RNA polymerase.

Binder | Kd [nM]
target 1 insG 3' of 20,insU 3' of 7 (mixed) RNA 1: CACCCGUGCAAAAAUGCAGGGGUCUAAAACUGAGCGGAUAACCUCUCUAUGG RNA 2: GGGAAUGGAUCCACAUCUACGAAUUCGUACCAGUAGAGAGGUUAUCUCGCUCACCGAGAUCGGAAGAGCACACGU | 90 ± 40
target 1 insU 3' of 13,insG 3' of 7 (mixed) RNA 1: CACCCGUGCAAAAAUGCAGGGGUCUAAAACUGAGCGGAUAACCUCUCUAUGG RNA 2: GGGAAUGGAUCCACAUCUACGAAUUCGUACCAUAGAGAGUGUUAUCGCGCUCACCGAGAUCGGAAGAGCACACGU | 9.5 ± 0.5
target 1 complement block 1-14 (mixed) RNA 1: CACCCGUGCAAAAAUGCAGGGGUCUAAAACUGAGCGGAUAACCUCUCUAUGG RNA 2: GGGAAUGGAUCCACAUCUACGAAUUCGUACCAUAGAGUCCAAUAGGCGAGUCCGAGAUCGGAAGAGCACACGU | ~100
target 2 MT 5'PFS UAG 3'PFS AUU (mixed) RNA 1: CACCCGUGCAAAAUUGCAGGGGUCUAAAACCUUCUCCAAAUUGUUUCAUCCU RNA 2: GGGAAUGGAUCCACAUCUACGAAUUCUAGAGGAUGAAACAAUUUGGAGAAGAUUAGAUCGGAAGAGCACACGU | 2.93 ± 0.34
target 2 MT 5'PFS UAU 3'PFS AUA (mixed) RNA 1: CACCCGUGCAAAAUUGCAGGGGUCUAAAACCUUCUCCAAAUUGUUUCAUCCU RNA 2: GGGAAUGGAUCCACAUCUACGAAUUCUAUAGGAUGAAACAAUUUGGAGAAGAUAAGAUCGGAAGAGCACACGU | 41 ± 7
target 2 MT 5'PFS UGC 3'PFS CGA (mixed) RNA 1: CACCCGUGCAAAAUUGCAGGGGUCUAAAACCUUCUCCAAAUUGUUUCAUCCU RNA 2: GGGAAUGGAUCCACAUCUACGAAUUCUGCAGGAUGAAACAAUUUGGAGAAGCGAAGAUCGGAAGAGCACACGU | ~48
target 2 MT 5'PFS GUG 3'PFS CGA (mixed) RNA 1: CACCCGUGCAAAAUUGCAGGGGUCUAAAACCUUCUCCAAAUUGUUUCAUCCU RNA 2: GGGAAUGGAUCCACAUCUACGAAUUCGUGAGGAUGAAACAAUUUGGAGAAGCGAAGAUCGGAAGAGCACACGU | 12.8 ± 1.6
target 2 MT 5'PFS GUG 3'PFS CGG (mixed) RNA 1: CACCCGUGCAAAAUUGCAGGGGUCUAAAACCUUCUCCAAAUUGUUUCAUCCU RNA 2: GGGAAUGGAUCCACAUCUACGAAUUCGUGAGGAUGAAACAAUUUGGAGAAGCGGAGAUCGGAAGAGCACACGU | 12.5 ± 1
target 2 MT 5'PFS AAU 3'PFS CCA (mixed) RNA 1: CACCCGUGCAAAAUUGCAGGGGUCUAAAACCUUCUCCAAAUUGUUUCAUCCU RNA 2: GGGAAUGGAUCCACAUCUACGAAUUCAAUAGGAUGAAACAAUUUGGAGAAGCCAAGAUCGGAAGAGCACACGU | 24 ± 12
target 2 MT 5'PFS UAU 3'PFS AUU (mixed) RNA 1: CACCCGUGCAAAAUUGCAGGGGUCUAAAACCUUCUCCAAAUUGUUUCAUCCU RNA 2: GGGAAUGGAUCCACAUCUACGAAUUCUAUAGGAUGAAACAAUUUGGAGAAGAUUAGAUCGGAAGAGCACACGU | 24.8 ± 2.3
target 2 MT 5'PFS UGA 3'PFS CAC (mixed) RNA 1: CACCCGUGCAAAAUUGCAGGGGUCUAAAACCUUCUCCAAAUUGUUUCAUCCU RNA 2: GGGAAUGGAUCCACAUCUACGAAUUCUGAAGGAUGAAACAAUUUGGAGAAGCACAGAUCGGAAGAGCACACGU | 15 ± 4
target 2 MT 5'PFS GUG 3'PFS CGC (mixed) RNA 1: CACCCGUGCAAAAUUGCAGGGGUCUAAAACCUUCUCCAAAUUGUUUCAUCCU RNA 2: GGGAAUGGAUCCACAUCUACGAAUUCGUGAGGAUGAAACAAUUUGGAGAAGCGCAGAUCGGAAGAGCACACGU | 9.5 ± 0.4
target 2 MT 5'PFS UAU 3'PFS AUG (mixed) RNA 1: CACCCGUGCAAAAUUGCAGGGGUCUAAAACCUUCUCCAAAUUGUUUCAUCCU RNA 2: GGGAAUGGAUCCACAUCUACGAAUUCUAUAGGAUGAAACAAUUUGGAGAAGAUGAGAUCGGAAGAGCACACGU | 45 ± 9

Source: article PMC10786891, “Massively parallel profiling of RNA-targeting CRISPR-Cas13d”
